According to publication PMC10542350, “Structural basis of nucleosome deacetylation and DNA linker tightening by Rpd3S histone deacetylase complex” (Cell Research, 2023):

Target: the molecule itself
Experiment: cryo-EM structure; purified apo Rpd3S complex; 3D map of 3.5 Å

B1: Rco1 (natural protein, Saccharomyces cerevisiae, UniProt Q04779 1-684, looked up)
chain: MDTSKKDTTRSPSHSNSSSPSSSSLSSSSSKEKKRPKRLSSQNVNYDLKRRKIITSEGIERSFKNEHSNLAVEDNIPEEEPKELLEKDSKGNIIKLNEPSTISEDSKVSVTGLPLNKGPSEKIKRESLWNYRKNLGGQSNNSEMTLVPSKRFTQVPKNFQDLNRNDLKTFLTENMTEESNIRSTIGWNGDIINRTRDREPESDRDNKKLSNIRTKIILSTNATYDSKSKLFGQNSIKSTSNASEKIFRDKNNSTIDFENEDFCSACNQSGSFLCCDTCPKSFHFLCLDPPIDPNNLPKGDWHCNECKFKIFINNSMATLKKIESNFIKQNNNVKIFAKLLFNIDSHNPKQFQLPNYIKETFPAVKTGSRGQYSDENDKIPLTDRQLFNTSYGQSITKLDSYNPDTHIDSNSGKFLICYKCNQTRLGSWSHPENSRLIMTCDYCQTPWHLDCVPRASFKNLGSKWKCPLHSPTKVYKKIHHCQEDNSVNYKVWKKQRLINKKNQLYYEPLQKIGYQNNGNIQIIPTTSHTDYDFNQDFKITQIDENSIKYDFFDKIYKSKMVQKRKLFQFQESLIDKLVSNGSQNGNSEDNMVKDIASLIYFQVSNNDKSSNNKSASKSNNLRKLWDLKELTNVVVPNELDSIQFNDFSSDEIKHLLYLKKIIESKPKEELLKFLNIENPENQSE
notes: Rco1, Saccharomyces cerevisiae; two copies (Rco1A, Rco1B) stand in the Rpd3S complex; also called Rco1A; Rco1B; source: High Five insect cells (baculovirus), co-expressed with the other Rpd3S subunits; purified as part of the complex (streptavidin column, Resource Q, gel filtration); not shown: double StrepII, C-terminal, kept
binding result: binds
